Experimental findings from patent US20230242654A1, “REAGENTS FOR EXPANDING CELLS EXPRESSING RECOMBINANT RECEPTORS” (Juno Therapeutics, Inc., priority 2017, published 2023) are described below.

The test deals with anti-BCMA CARs. Description: BCMA-Fc fusion protein binding to CAR T cells by flow cytometry. The following applies: versus T cells expressing CARs that do not bind BCMA. How it is done: The clone encoding the recombinant human BCMA-Fc fusion construct with the N-terminal CD33 leader sequence (SEQ ID NO: 30) was inserted into an expression vector and expressed in HEK 293 cells. Supernatant from the transiently transfected HEK cells was harvested after 5 days and the BCMA-FC fusion protein was purified by protein A affinity chromatography and size exclusion chromatography (SEC). The resulting BCMA-Fc fusion protein was determined to have a purity of greater than 95% as assessed by gel permeation chromatography.

B1: BCMA-Fc fusion protein: extracellular domain of human BCMA and a human IgG1 Fc connected with a linker (SEQ ID NO: 35) (protein)
chain: MLQMAGQCSQNEYFDSLLHACIPCQLRCSSNTPPLTCQRYCNASVTNSVKGTNAGGGGSPKSSDKTHTCPPCPAPEAEGAPSVFLFPPKPKDTLMISRTPEVTCVVVDVSHEDPEVKFNWYVDGVEVHNAKTKPREEQYNSTYRVVSVLTVLHQDWLNGKEYKCKVSNKALPSSIEKTISKAKGQPREPQVYTLPPSRDELTKNQVSLTCLVKGFYPSDIAVEWESNGQPENNYKTTPPVLDSDGSFFLYSKLTVDKSRWQQGNVFSCSVMHEALHNHYTQKSLSLSPGK
modifications: BCMA-Fc fusion polypeptide
In the case of B1, the “binding of BCMA-Fc to CAR expressing T cells” value was “specifically bound to anti-BCMA CAR expressing T cells”.
